The subject of data set [1] is NCI-H358 cells. The experiment in a line: Cell viability after 48 h treatment. It is filed as cell-based, human.
The next data set has as its system SKOV-3 cells. The experiment in a line: Cell viability after 48 h treatment. It is filed as cell-based, human.
Another data set can be described thus: Dynamic light scattering. It is filed as physicochemical. The following applies: DLS intensity average, scattering angle 90°, room temperature, Nanopure water.
The target of a further data set is α-chymotrypsin (Bos taurus, UniProt P00766). The experiment in a line: Proteinase assay, α-chymotrypsin degradation by PAGE. The format is in vitro ADME. As to conditions: bands of intact MEL diminished significantly after 15 min.
For the next data set, the system named is human red blood cells. The experiment in a line: Hemolysis assay, hemoglobin released from red blood cells. The format is cell-based. As to conditions: hemoglobin in supernatant, spectrophotometric.
A further data set in a line: ζ potential measurement. It is filed as physicochemical. As to conditions: in Nanopure water.
The next data set relates to human plasma. As to the kind of experiment: Activated partial thromboplastin time. As to conditions: 20 μM MEL concentration.
Data set [2] is described as follows: Plasma pharmacokinetics after tail vein injection. It is filed as in vivo. As to conditions: C57BL/6 mice, i.v. tail vein, Cy5.5-labeled, two-compartment model, n = 5.
For data set [3], the system named is NCI-H358 xenografts. As to the kind of experiment: Biodistribution by fluorescence imaging in NCI-H358 xenograft mice. The format is in vivo. The following applies: i.v. 3 mg/kg MEL, 24 h post-injection, n = 2.
The test system of data set [4] is NCI-H358 xenografts. The experiment in a line: Tumor growth inhibition in NCI-H358 xenograft. It is filed as in vivo, athymic nude mice. The following applies: 3 mg/kg MEL-basis i.v. every 3 days, 30 days, n = 4; vehicle 453%.
The nature of data set [5]: Innate immune response, cytokine ELISA. It is filed as in vivo. As to conditions: C57BL/6 mice, 3 mg/kg MEL, blood 4 h after injection, n = 5. A general note: An ELISA detects its analyte on a solid surface through an enzyme-linked reagent.
Data set [6] has as its system NCI-H358 cells. The experiment in a line: Cellular uptake kinetics by flow cytometry. The following applies: 1 μM of MEL for 1–4 h. It is filed as cell-based, human. (In general: Flow cytometry measures light scatter and fluorescence of single cells or particles in a stream.)
For the next data set, the system named is SKOV3 cells. As to the kind of experiment: Cellular uptake kinetics by flow cytometry. The format is cell-based, human. As to conditions: 1 μM of MEL for 1–4 h.

As for “pacMELNClv: non-cleavable conjugate of MEL and bottlebrush PEG, negative control”, the “cytotoxicity (cell viability, in words)” value in the data set with NCI-H358 cells [1] and with SKOV-3 cells was “no evident cytotoxicity” in each case.
With “YPEG-MEL: conjugate of low PEG density: MEL on Y-shaped PEG, Mn 40 kDa, each arm 20 kDa”, in “Dynamic light scattering”, the “Dh (hydrodynamic diameter, DLS)” value worked out at 21.0 ± 0.5 nm. The “α-chymotrypsin digestion (in words)” value in the data set with α-chymotrypsin is reported as “digested rapidly”. The “cytotoxicity (cell viability, in words)” value in the data set with NCI-H358 cells [1] and in the data set with SKOV-3 cells was “reduced but still apparent cytotoxicity” each time. The “hemolysis at 1 μM” value in the data set with human red blood cells (1 μM) turned out to be 16%.
Turning to melittin, the ζ potential in “ζ potential measurement” is given as ~ 8 mV. Moreover, in the data set with α-chymotrypsin, the “α-chymotrypsin digestion (in words)” value is recorded as “digested rapidly”. Also, the “effect on coagulation (clotting) time, aPTT” value in the data set with human plasma is reported as “doubling the coagulation times”. For the same substance, in the data set on human red blood cells (60 μM), the “hemolysis of RBCs at 60 μM” value is on record as “near-complete hemolysis”. In addition, the “elimination half-life (t1/2β)” value in [2] is recorded as 43 min. The “tumor vs. liver ratio (relative fluorescent intensities)” value with NCI-H358 xenografts [3] was 0.61. The “tumor vs. spleen ratio (relative fluorescent intensities)” value with NCI-H358 xenografts [3] is on record as 0.55. For the same substance, the “tumor growth by day 30 (% of original size)” value with NCI-H358 xenografts [4] was “did not lead to statistically meaningful repression of tumor growth”. Besides, in data set [5], the “interleukin-6 (IL-6) activation” value is “induces activation”. Besides, the “cellular uptake (in words)” value is “fast and accelerating process” with NCI-H358 cells [6]; “fast and accelerating process” in the data set with SKOV3 cells.

The record behind these values is article PMC8784393 (ACS applied materials & interfaces, 2021).
